Test results reported in US20250270305A1 (OSAKA UNIVERSITY, published 2025).

Experiments:
[1] = target: T1, recombinant human Netrin-4 (human, UniProt Q9HB63 19-628, limits assumed); assay: ELISA screening of hybridoma culture supernatant
T1 sequence: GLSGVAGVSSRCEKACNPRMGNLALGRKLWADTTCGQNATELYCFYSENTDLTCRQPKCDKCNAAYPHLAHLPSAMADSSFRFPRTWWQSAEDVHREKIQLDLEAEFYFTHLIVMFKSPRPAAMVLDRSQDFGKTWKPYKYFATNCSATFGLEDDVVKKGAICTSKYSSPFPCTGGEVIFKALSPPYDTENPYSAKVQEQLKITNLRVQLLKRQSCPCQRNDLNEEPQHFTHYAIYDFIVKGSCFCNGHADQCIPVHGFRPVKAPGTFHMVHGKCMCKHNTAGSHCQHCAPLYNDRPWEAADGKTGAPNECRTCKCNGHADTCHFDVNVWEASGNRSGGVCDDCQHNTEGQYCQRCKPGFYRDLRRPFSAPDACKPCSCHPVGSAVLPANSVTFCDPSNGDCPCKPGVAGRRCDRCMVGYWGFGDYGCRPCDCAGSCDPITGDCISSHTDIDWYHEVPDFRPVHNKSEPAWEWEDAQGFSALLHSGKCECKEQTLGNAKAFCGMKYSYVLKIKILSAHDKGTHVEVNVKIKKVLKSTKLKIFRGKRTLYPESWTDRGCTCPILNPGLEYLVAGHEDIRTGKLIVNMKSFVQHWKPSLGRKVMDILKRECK
Source text: (§1) Four mice were immunized with the epitope peptide. After four immunizations, the blood was collected to determine the antibody titers using ELISA against recombinant human Netrin-4 and TGGEVIFKALS peptide. Mouse lymphocytes with increased antibody titers were fused with myeloma cells, and cultured in HAT medium to produce hybridomas. About ten days after cell fusion, antibody production in the culture supernatant was screened by ELISA (against recombinant human Netrin-4 and TGGEVIFKALS peptide), and 95 positive wells were selected. Primary cloning was then performed by limiting dilution, followed by screening by ELISA (against recombinant human Netrin-4 and TGGEVIFKALS peptide). Secondary cloning was then performed by limiting dilution, followed by screening by ELISA (against recombinant human Netrin-4 and TGGEVIFKALS peptide). A single clone was selected. The selected clone was expanded, and cultured at a high density in a serum-free medium. The culture medium was collected and purified on a protein A column to produce IgG. Purity was measured using AKTA-FPLC, and the titer was measured by ELISA. IgG was further purified with low endotoxin levels and used for the subsequent experiments.

[2] = target: T2, TGGEVIFKALS peptide (amino acid residues 192 to 202 of human Netrin-4) (human); assay: ELISA screening of hybridoma culture supernatant
T2 construct: The immunogen was C-Ahx-TGGEVIFKALS linked to bovine thyroglobulin; The ELISA antigen is named only as the TGGEVIFKALS peptide
T2 peptide: TGGEVIFKALS
Source text: as §1

binding result [1]: binds
binding result [2]: binds
B1: anti-Netrin-4 monoclonal antibody produced by the hybridoma cell line Human Netrin-4 (192-202)-6A1 (Accession No. NITE BP-03603) (antibody, V domains shown)
VH: QVQLHQSGPELVRPGASVTLSCKASGYTFTDYEMHWVKQTPVHGLEWIGAIDPETGDTVYNQKFKGKATLTADKSSSTAYMELSSLTSEDSAVYYCVDGFSDHYWGQGTTLTVSS
VL: VLVLTQTPLSLPVRLGDRASISCRSSQSLVHSSGNTFLHWYLQKPGQSPKLLIYKVSSRFSGVPDRFSGSGSGTDFTLKISRMEAEDLGVYFCSQSTHIPYTFGGGTKLEIKR
notes: In the ELISA screens the antibody was hybridoma culture supernatant
